Values of other authors in article PMC3082853.

Target: FepA (Escherichia coli) (UniProt P05825)
UniProt P05825, sequence (P05825 23-746): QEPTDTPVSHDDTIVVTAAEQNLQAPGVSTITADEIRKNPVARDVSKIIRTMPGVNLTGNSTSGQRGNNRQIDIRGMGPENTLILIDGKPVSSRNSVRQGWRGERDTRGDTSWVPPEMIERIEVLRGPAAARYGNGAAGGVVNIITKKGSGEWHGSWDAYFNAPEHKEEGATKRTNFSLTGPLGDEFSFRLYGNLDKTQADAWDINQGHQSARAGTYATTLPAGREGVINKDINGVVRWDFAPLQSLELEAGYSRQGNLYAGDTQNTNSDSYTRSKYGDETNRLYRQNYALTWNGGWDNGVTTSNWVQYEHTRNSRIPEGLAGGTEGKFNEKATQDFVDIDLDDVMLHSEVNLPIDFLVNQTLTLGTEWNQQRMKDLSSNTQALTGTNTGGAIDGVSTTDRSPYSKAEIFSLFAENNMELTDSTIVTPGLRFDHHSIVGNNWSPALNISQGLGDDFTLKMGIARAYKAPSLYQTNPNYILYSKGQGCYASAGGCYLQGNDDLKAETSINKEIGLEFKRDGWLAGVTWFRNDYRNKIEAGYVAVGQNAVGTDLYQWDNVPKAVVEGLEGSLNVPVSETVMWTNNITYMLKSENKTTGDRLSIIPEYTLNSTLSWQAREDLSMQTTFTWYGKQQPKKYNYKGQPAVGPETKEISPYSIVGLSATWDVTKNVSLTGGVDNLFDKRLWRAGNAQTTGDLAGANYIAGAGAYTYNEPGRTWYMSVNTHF

For colicin B (from UniProt P05819), the Kd is listed as 185 nM.
